Key:
[1] = target: Dpb11 (UniProt P47027); assay: Flag purification, SILAC quantitative MS; conditions: reference: wild type; sites S486
[2] = target: Dpb11 (UniProt P47027); assay: anti-Flag co-IP, Western blot; conditions: reference: wild type (undamaged or MMS); sites S486

Row | fold change [1] | Substance | binding against the reference [2]
1 | weaker | Slx4 (from UniProt Q12098) S486A | –
2 | – | Slx4 (from UniProt Q12098) S486A (undamaged or MMS) | weaker

— publication PMC4102767
